Laboratory results as given in paper PMC10156769, “The novel anti-cancer fluoropyrimidine NUC-3373 is a potent inhibitor of thymidylate synthase and an effective DNA-damaging agent” (Cancer Chemotherapy and Pharmacology, 2023).

Columns and labels:
[1] = substrate: O=c1ccn([C@H]2C[C@H](O)[C@@H](COP(=O)(O)OP(=O)(O)OP(=O)(O)O)O2)c(=O)[nH]1; experiment: purified protein; settings: Mg2+ ([…] MgCl2 in the assay buffer)
[2] = substrate: O=c1[nH]c(=O)n([C@H]2C[C@H](O)[C@@H](COP(=O)(O)OP(=O)(O)OP(=O)(O)O)O2)cc1F; experiment: EnzChek pyrophosphate coupled assay, Michaelis-Menten substrate kinetics (KM); type: biochemical, Homo sapiens; settings: Mg2+ ([…] MgCl2 in the assay buffer)

B1: dUTPase (Deoxyuridine triphosphate nucleotidohydrolase) (Homo sapiens) (protein)
chain: ASTVGAAGWKGELPKAGGSPAPGPETPAISPSKRARPAEVGGMQLRFARLSEHATAPTRGSARAAGYDLYSAYDYTIPPMEKAVVKTDIQIALPSGCYGRVAPRSGLAAKHFIDVGAGVIDEDYRGNVGVVLFNFGKEKFEVKKGDRIAQLICERIFYPEIEEVQALDDTERGSGGFGSTGKN
Km [1]: 3.2 ± 1.8 µM | Km [2]: 19.1 ± 6.7 µM
